# Assay: soluble on expression in E. coli; label from the status in PepcDB or PDB records
row,Sequence,soluble on expression in E. coli
1,GPGSMFRRLSSSARAVVAARFYTPPEGLKKLYASDFENSKYPLNIVPSDSVLFAKFLYKAAEEKGNFDNILSDFQKIAAAASKLPIFWERTAVVEKIPEFKQLSEPTFFTLVWMQNNGMLELIQEVAEVYETFVNAKQKKAVAKIFVAPGGEKNVEEARRVAEELHKGLKELADYTLVLKTVVDRTIVKGFAVELAGQYVNKAEGQQKQAGRADEVDYTNLPAPKPQKTVWDDNIETEVLRKYLDGLSQYDMEEAKYGV,not soluble
2,MSTRWRYYNSKRGNGFRGRGRGRGRGTSLTAVALPRDDNFHKGAQDGAYFKDMPMDPEQFRDETVLSLSFAQGMLGAAYYEQSSQLLKIMNDISEDLEFRFLKRLIDDVKPTLIIANRSQDLEFIKFLTTRYDPQEKIYEDGTTEEGTSEDTVPTWDSSLAYSTDETTAEKEEKEEDEDDDDEGLPAKLNKLPNNFFRMSRAIERLKAMAGSHDSSMTEEDKYIIIKMRFDIEAVNMIRSFGALLLFLDETRMGVTDDPLSVTSPIKSIKTFTLGNLVEIDFNTIQALDILPKETENKKTFGQGRSLYQLMDKCRSTVGKKCLRKWFRNPTTDRDDLVSRQKCVHYFKQDWNAEVTAKLSSILGRVKALNSVFQKFQSGTAQLIHWECFVSTVNALVEILNIIRQTPISKEFPVESDLLREVSEIAVIAGSIINFAESKIQGRVTVMNGIDEELDEIRDTYENMPMVLTAIAKQEEARLGLPPYSNVACVYIPLVGFVLSVPRDYGVESQPDMTLLYSTHEDLRVRNATTSRLDDEFGDILMRLIDSQTAIILTLKTRVMKKKRSIIKLLSIASRIDVLISFGLIAAQNGWNCPALVDEPVIEAVELYHPISVLVVKKSFVPNQVSSGRDGIKASIITGPNACGKSVYMKSIGIMVFLSHIGSFVPARHAKIGIVDRIVTRMFTVDSVLDGMSTFAKDVEQVALALRKATGNSLVIIDEFGKGTMTEVGLSLLASVMTYWMNRGADRCPHIFLSSHFHALPNYIPLETNIATFLTFTVLREAGGKIKYLFRMTPGLVDCSFALSVAKEEGIPPPVIGRACRIYKALKAGTLLKEIKAEVSNDNEKQLVEDMDVVLADEDGFMAAVESFVKRKKTSFCESSMRNVSEEIEKERSEASTPASKSRSTITARSNSVLSSRSMASVDQLSVLDALLPKKKKKKVTGSSMESSMSPDPFQEEDEGTEGEEDQISAPVSRPTLPSVQKYASEEEKQQSINSRHSFSTRTAIHIPTPIQMGEAGGVKRPRSTSTSSPGPSASKSVRTEVFKKTPNVKESQVLETPKQLSISSFLEPKFPSSEKDVISRVSERYLQSDPFKTPISDRRSQQSSRHSTPKNRSMNQSLIQSARDTPHETIRSSNEVNPEFFNIFNFPDDSILKSQDTYDPNVTPRSSSRRELRPDVSHSQNSQFGEVFSELGTQFSIFNSQQSFPGNSMGTTNPDCSIFDDFFANSQDGEKKIDSTKTSMPIVNSDNFIFKTPEPRSSEKQRSLLKNKGQASNSSISPSSLILGQLAFGDVDQTPRPRGDNPIEFQYDVVDDDDPIFEEKNCSAPVFEFLKSNDDEEDDEFLKSFLETEGSLHIDTSADETIDRSKRS,not soluble
3,MSLKHQETTSQQYNFSIIKHGDISTPQGFTAGGMHIGLRANKKDFGWIYSSSLASSAAVYTLNQFKAAPLIVTEDTLQKSKGKLQALVVNSANANSCTGQQGIDDARQTQTWVAQQLQIPSEHVAVASTGVIGEYLPMDKIKTGTEHIKDTNFATPGAFNEAILTTDTCTKHIAVSLKIDGKTVTIGGSAKGSGMIHPNMATMLAFITTDASIESNTLHQLLKSSTDHTFNMITVDGDTSTNDMVLVMANHQVEHQILSQDHPQWETFVDAFNFVCTFLAKAIARDGEGATKLISVNVSGAKSISDARKIGKTIVSSNLVKSAIFGEDANFGRIITAIGYSGCEIDPKCTYVQLNQIPVVDKGMAVLFDEQAMSNTLTHEHVTIDVQLGLGNAAATAYGCDLSYDYVRINASYRTEGHHHHHH,soluble
4,MGHHHHHHSHMLRILKKDCALTGGEVTLANQTKIFYVIKAPSLCSLVGSPSSDSVTSQELFKTFPCETPLSMPLVSTSNPLLSIVRLMVSPKPYDLTGVLCFGEDHETHYILRRVAKILTMTQEELDTICDIELHFSSNETLSSNRVPSRLTESIFPGLVPTVHFPQNMILSRGFFTGGNGPIIKHVAQTHHLTSDFVARVFYALKTPQAHAPGAAQLYRGLQIMNHAHNGLDFFPSDSDINDMQQMFLKHVLLSRKGTDSCAQMFFQAYLPVAPEVLGPEVIERVELALAKIELFANNTVFCMSTISTIVRPRIQVTTSANIKYIRMANKYFTMFPPINKDTAVIFGAAVLDQICKETPIREIVLVLRKYAHVVRRPHTPTIKLYTVLTL,not soluble
5,MSYNYLKAARKIICIGRNYAAHIKELNNSTPKQPFFFLKPTSSIVTPLSSSLVKTTRPANSTFNGLNEDGTNPGPIFIPRGVKVHHEIELALIVSKHLSNVTKMKPEEVYDSISGVALALDLTARNVQDEAKKKGLPWTISKGFDTFMPISAIVSREKFSSYKSNLQDIFRVKCSVNGQLRQDGGTNLMLHPLHKILQHISTMISLEPGDIILTGTPAGVGELKPGDRVHCELLQNNDNIVDMNFECENRPGPYEFRET,soluble
6,MNRDLPVLRALRSLPDKVVGEALVSNDAISMRYDVDASTGKVVRPSHDLYGQSISGKVLIFKNTKGGVATGWALLNLKSRGTAPIALVCDTTNPVFVQGAALAGLPIMDGFRESPRSAVRTGDVVELDGISGELKVLRRGAGGQLEHHHHHH,not soluble
7,GLDNELSLVDGQDRTLTVQQWDTFLNGVFPLDRNRLTREWFHSGRAKYIVAGPGADEFEGTLELGYQIGFPWSLGVGINFSYTTPNILIDDGDITRPPFGLNSVITPNLFPGVSISADLGNGPGIQEVATFSVDVSGAEGGVAVSNAHGTVTGAAGGVLLRPFARLIASTGDSVTTYGEPWNMN,soluble
8,MRPSAIVLAGGKEAWAERFGVGSKALVPYRGRPMVEWVLEALYAAGLSPVYVGENPGLVPAPALTLPDRGGLLENLEQALEHVEGRVLVATGDIPHLTEEAVRFVLDKAPEAALVYPIVPKEAVEARFPRTKRTYARLREGTFTGGNLLLLDKSLFRKALPLARRVVALRKRPLALARLVGWDVLLKLLLGRLSLAEVEARAQRILGVEARALVTPYPEVGVDVDREEDLVS,soluble
9,MVLLLRYRSLTINLTPLIPKSQKFHTLQSFRNPNFISIPKISASTNNPTTTTNRSISDATKFAKSVLFIPPGVEIEELTDDMVLPGSNIVIGPFAGHSQIKEVEFVKSSARARDCPKDDRPEIAILGRSNVGKSSLINCLVRKKEVALTSKKPGKTQLINHFLVNKSWYIVDLPGYGFAKVSDAAKTDWSAFTKGYFLNRDSLVCVLLLIDASVPPQKIDLDCANWLGRNNVPMTFVFTKCDKMKATKGKRPDENIKAFQQIIRENFKVHPPWILTSSVSGLGRDELLLHMSQLRNYWDQ,not soluble
10,MHHHHHHAMNHETFLKRAVTLACEGVNAGIGGPFGAVIVKDGAIIAEGQNNVTTSNDPTAHAEVTAIRKACKVLGAYQLDDCILYTSCEPCPMCLGAIYWARPKAVFYAAEHTDAAEAGFDDSFIYKEIDKPAEERTIPFYQVTLTEHLSPFQAWRNFANKKEY,soluble
11,MTLDANSAPVRDMASAHFSPGEDCRRKIRDLCRQARISVDICVFTISDDQLSDEIRACHQRGVAVRVISDSEKQFDVGSDIAALREAGVPVRIDDTPFHMHHKFAVFDGRTLLNGSFNWTRSATTGNEENLLVIDHPQLVASYLKEFNELWSRYAPRLEHHHHHH,not soluble
12,MGSDKIHHHHHHMRCFIGIDLGSTTTKAVVMDENLQILGRGITNSRSNYDTAAAVSKQEALIDTRLTLFRRALGGVPEVAGKVDDILSDLERNFRHVQFLEQLEDLQQTCIANIKGPRFAGREKTVIEALEGTFSRLRDSSAKQYAPGVKRKSDFFRDLAGAEFMSHGEAVCKEAGLGFDLILNVYDKSIIEVENRPPSGDMEGKFVRALEKGTMTGSSILAPVQSALAIPLEETYVVGTGYGRVRLPFPKEHIRSEILCHGLGAHMMYPETRTVLDIGGQDTKGIQVDPVGIVENFQMNDRCAAGCGRYLGYIADEMNMGLHELGPLAMKSNKQVRINSTCTVFAGAELRDRLALGEKREDILAGLHRAIILRAMSILSRAGGVKDQFTFTGGVAKNEAAVRELRKLIKENYGDVTINIDPDSIYTGALGGATFAVRAVVN,not soluble
13,MDHLKHLQQLQNIERIVLSGIVLANHKIEEVHSVLEPSDFYYPPNGLFFEIALKLHEEDCPIDENFIRQKMPKDKQIKEEDLVAIFAASPIDNIEAYVEEIKNASIKRKLFGLANTIREQAHH,soluble
